Where “and” joins values, the source holds several entries; their conditions need not be identical. Identical values can stand only once. Like-named read-outs stand apart in the source and are kept apart here.
Key:
FcgRI = assay: SPR
[1] = biological target: recombinant human Ep-CAM/Fc (R&D Systems) (human) (UniProt P16422); assay: SPR
[2] = biological target: recombinant human Ep-CAM/Fc (R&D Systems) (human) (UniProt P16422); assay: SPR; remark: listed apart in the source
[3] = biological target: extracellular domain of Ep-CAM (DIGylated) (UniProt P16422); assay: antigen binding
Sequence of extracellular domain of Ep-CAM (DIGylated) (P16422 24-265): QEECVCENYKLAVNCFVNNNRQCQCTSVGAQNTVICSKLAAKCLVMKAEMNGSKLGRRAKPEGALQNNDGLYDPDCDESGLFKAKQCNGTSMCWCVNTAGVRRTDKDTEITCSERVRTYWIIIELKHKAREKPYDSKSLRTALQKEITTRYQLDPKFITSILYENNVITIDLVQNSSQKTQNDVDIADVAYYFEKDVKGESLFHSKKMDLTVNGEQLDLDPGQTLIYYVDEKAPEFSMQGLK

Sequence of recombinant human Ep-CAM/Fc (R&D Systems) (human) (P16422 24-265): as above

Kd (FcgRI) [nM]	Kd [1] [nM]	Kd [2] [nM]	EC50 [3]	Substance
1.37				H3.77_L3 S239D IgG1 (from UniProt P01857 1-330)
	159	158	1.9E-07 ? and 2.5E-07 ?	Wild-type IgG1 Ep-CAM antibody (17-1A H0L0 variable regions, chimeric human IgG1)

Reference: US20070122406A1
